In patent US20100093623A1, “COMPOSITIONS AND METHODS FOR […]-LIKE RECEPTOR ACTIVITY AND USES THEREOF” (Burnham Institute for Medical Research, priority 2008, published 2010):
Where “and” joins values, the source holds several entries; their conditions need not be identical. Identical values can stand only once. Entries after “also recorded” stand apart in the source; their conditions may differ. No end group written: not given here.

Experiments:
Caspase-1 = target: T1, Caspase-1 (Homo sapiens, UniProt P29466); experiment: activity of purified active p10/p20 Caspase-1 (direct effect); format: biochemical; details: active p10/p20 Caspase-1 5 nM; test protein/peptide at excess; Ac-WEHD-CHO 10 nM
T1 construct: fully active, proteolytically processed Caspase-1 comprised of p20 and p10 catalytic subunits purified from bacteria; made in house; host or cells: bacteria
T1 sequence (P29466 120-297 limits assumed): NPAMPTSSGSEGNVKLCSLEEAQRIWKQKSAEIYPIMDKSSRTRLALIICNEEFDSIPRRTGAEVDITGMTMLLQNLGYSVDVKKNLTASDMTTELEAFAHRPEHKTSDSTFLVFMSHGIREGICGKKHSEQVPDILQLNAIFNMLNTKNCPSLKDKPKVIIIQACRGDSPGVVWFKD
T1 sequence (P29466 317-404 limits assumed): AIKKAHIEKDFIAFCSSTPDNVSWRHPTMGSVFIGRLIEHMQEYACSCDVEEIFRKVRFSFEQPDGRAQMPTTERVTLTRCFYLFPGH
Method: (§1) FIGS. 16A-16E show Bcl-2 Loop peptide inhibits NLRP1. […] Asterisk indicates p<0.05. (B) Purified active p10/p20 Caspase-1 (5 nM) was incubated with or without Bcl-2 Loop peptide 35-83 or Ac-WEHD-CHO (10 nM). […] Asterisks indicate p<0.05.
Caspase activity measurements. […] Proteins were mixed in Caspase-1 buffer (100 mM HEPES, [pH 7.5], 10% Sucrose, 0.1% CHAPS, 1 mM Dithiothreitol) in a final volume of 10 μl in 96-well plates. Various activators were added (ATP, Mg^2+, MDP-LD), adjusting final volume with water. Samples were then incubated for 30 min at 37° C. and Caspase-1 activity was measured using 20 μM fluorometric substrate Ac-WEHD-AMC (Calbiochem). Release of AMC product was monitored continuously by spectrofluorometry in kinetic mode over 1 h at 25-27° C. Rates of catalysis were calculated using the initial slope and Caspase activity was expressed as the change in fluorescence over time derived from the linear phase of reactions. Data were analyzed using the PRISM Statistics software, employing an unpaired t test.
To exclude a direct effect of Bcl-2 and Bcl-XL on Caspase-1, as opposed to NLRP1, the effects of these anti-apoptotic proteins were tested on fully active, proteolytically processed Caspase-1 comprised of p20 and p10 catalytic subunits purified from bacteria (FIG. 11).

NLRP1ΔLRR = experiment: Caspase-1 activation by NLRP1ΔLRR mutant; format: biochemical; details: peptide 50 nM; Ac-WEHD-CHO 10 nM; NLRP1ΔLRR 8.5 nM
Method: as §1
To characterize the sequence of the Bcl-2 loop responsible for inhibiting NLRP1, a series of overlapping 20′mer peptides corresponding to the 35-83 region were synthesized and tested their effects on NLRP1-mediated Caspase-1 activation. […] The effects of the full-loop peptide (35-83) and the active segment (71-90) were specific, as determined by experiments using a NLRP1 mutant lacking the LRRs. […] Finally, the concentration-dependence of NLRP1 inhibition by the 35-83 and 71-90 loop peptides were compared.

NLRP1 [1] = target: T2, NLRP1 (Homo sapiens, UniProt Q9C000); experiment: in vitro reconstituted NLRP1 inflammasome: Caspase-1 activity by hydrolysis of Ac-WEHD-AMC; format: biochemical; details: for concentration-dependence of inhibition of NLRP1-induced Caspase-1 activity: various concentrations of protein or peptide, NLRP1 8.5 nM; for Km: GST-Bcl-2 or GST-Bcl-XL 2 nM, control without inhibitor 2.62±0.35 μM, read-out: Km of Caspase-1 for its substrate Ac-WEHD-AMC in presence of inhibitor; for reduction of affinity (Km) of Caspase-1 for Ac-WEHD-AMC compared to control: in presence of Bcl-2 or Bcl-XL; for Ki: recombinant GST-fusion protein, calculated from Km with/without 2 nM inhibitor, competitive inhibition equation, read-out: inhibitory constant (Ki) for suppression of NLRP1 (NLRP1-induced Caspase-1 activation); for mechanism of NLRP1 inhibition (Lineweaver-Burke analysis): x-axis intercept changed, y-axis intercept unchanged; for IC50: synthetic Bcl-2 peptides, various amounts, sigmoidal fit, read-out: IC50 (concentration to inhibit NLRP1-induced Caspase-1 activity by 50%)
T2 sequence (Q9C000 1-1473): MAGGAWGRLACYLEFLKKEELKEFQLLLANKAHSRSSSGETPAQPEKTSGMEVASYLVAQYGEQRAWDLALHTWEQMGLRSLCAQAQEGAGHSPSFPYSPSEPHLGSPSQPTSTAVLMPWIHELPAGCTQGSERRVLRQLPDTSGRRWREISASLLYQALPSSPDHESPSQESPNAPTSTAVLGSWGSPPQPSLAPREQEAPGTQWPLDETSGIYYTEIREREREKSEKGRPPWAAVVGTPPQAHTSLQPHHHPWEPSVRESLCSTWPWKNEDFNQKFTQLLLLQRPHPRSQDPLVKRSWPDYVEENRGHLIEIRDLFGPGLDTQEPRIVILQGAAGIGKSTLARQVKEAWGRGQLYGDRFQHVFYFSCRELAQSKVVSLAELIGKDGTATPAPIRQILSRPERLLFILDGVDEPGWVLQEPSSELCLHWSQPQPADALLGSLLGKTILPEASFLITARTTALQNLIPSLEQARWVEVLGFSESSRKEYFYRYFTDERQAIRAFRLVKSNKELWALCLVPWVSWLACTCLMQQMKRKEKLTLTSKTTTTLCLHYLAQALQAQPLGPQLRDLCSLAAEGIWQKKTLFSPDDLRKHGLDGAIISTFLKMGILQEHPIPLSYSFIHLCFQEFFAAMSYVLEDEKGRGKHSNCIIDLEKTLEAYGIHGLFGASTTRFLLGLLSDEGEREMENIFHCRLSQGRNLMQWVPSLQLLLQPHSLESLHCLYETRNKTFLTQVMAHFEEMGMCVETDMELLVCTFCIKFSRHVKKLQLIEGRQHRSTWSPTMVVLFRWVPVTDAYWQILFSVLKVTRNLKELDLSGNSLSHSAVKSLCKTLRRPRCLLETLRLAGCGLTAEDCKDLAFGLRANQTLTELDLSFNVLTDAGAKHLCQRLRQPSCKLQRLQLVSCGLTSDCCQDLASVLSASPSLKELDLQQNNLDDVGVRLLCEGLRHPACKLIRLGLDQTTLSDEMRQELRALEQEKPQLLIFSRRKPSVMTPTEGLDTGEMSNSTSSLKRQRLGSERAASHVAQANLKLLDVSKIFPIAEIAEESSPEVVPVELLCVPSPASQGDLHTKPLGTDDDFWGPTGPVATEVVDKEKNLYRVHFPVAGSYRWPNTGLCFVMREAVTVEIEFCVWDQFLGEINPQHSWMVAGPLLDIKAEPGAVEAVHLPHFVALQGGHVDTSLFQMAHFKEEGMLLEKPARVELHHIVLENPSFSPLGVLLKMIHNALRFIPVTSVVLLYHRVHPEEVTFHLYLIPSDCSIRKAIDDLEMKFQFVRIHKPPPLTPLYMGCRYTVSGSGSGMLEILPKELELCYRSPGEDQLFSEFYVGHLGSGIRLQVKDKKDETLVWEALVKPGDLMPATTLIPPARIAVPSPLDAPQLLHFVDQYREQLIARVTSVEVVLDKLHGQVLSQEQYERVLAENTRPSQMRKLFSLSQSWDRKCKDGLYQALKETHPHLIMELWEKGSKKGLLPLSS

NLRP1 [2] = target: T2, NLRP1; experiment: FITC-ATP binding to NLRP1 by fluorescence polarization assay (FPA); details: protein 1 μM at excess; NLRP1 0.125 μM; FITC-ATP 10 nM; MDP-LD 1 μM
NLRP1 [3] = target: T2, NLRP1; experiment: NLRP1-mediated proteolytic processing of pro-Caspase-1 (anti-p10 immunoblot); format: biochemical; details: molar ratio NLRP1/protein 1/5
NLRP1 [4] = target: T2, NLRP1; experiment: NLRP1 oligomerization induced by MDP and ATP, 2D native/SDS gel electrophoresis; format: biochemical; details: protein at excess (1/10 molar ratio)
Method: Electrophoresis. Samples were incubated with protein solubilizing solution (40 mM 6-aminocaproic acid, 20 mM Bis-tris) for 30 min at 4° C., mixed with loading buffer (1M 6-aminocaproic acid, 5% Serva blue G), and applied to acrylamide-bis gradient (4-20%) gels (Schagger et al., (1994) Anal Biochem 217, 220-30). Bands of gels corresponding to the entire lane were excised from top to the bottom, incubated 45 min at 25-27° C. in denaturating buffer (1% β-mercaptoethanol, 10% SDS), then washed twice in equilibrating buffer (50 mM Tris. 1% SDS). Bands from gels were set horizontally on a SDS-acrylamide gel, and proteins were separated by electrophoresis (second dimension), then stained with Sypro Ruby. Molecular weight markers included Thyroglobuline, Apoferritin, β-Amylase and BSA (Sigma).
Oligomerization of NLRP1 induced by MDP and ATP can be monitored using 2D gel-electrophoresis analysis, in which the first dimension is non-denaturing and thus preserves macromolecular complexes during electrophoresis and the second dimension contains SDS for subsequent identification of proteins based on their known molecular mass (Faustin, 2007). For these experiments, NLRP1 monomers were incubated with various proteins (GST, GST-Bcl-XL, His6-Bcl-XLΔLoop) at excess, then MDP and ATP were added to induce oligomerization (FIG. 15). […]

Row | Substance | direct effect on activity of fully active processed Caspase-1 (Caspase-1) | Caspase-1 activation by NLRP1ΔLRR (NLRP1ΔLRR) | concentration-dependence of inhibition of NLRP1-induced Caspase-1 activity (NLRP1 [1]) | reduction of FITC-ATP binding to NLRP1 (NLRP1 [2]) | MDP/ATP-induced proteolytic processing of pro-Caspase-1 to cleaved p10 subunit (NLRP1 [3]) | oligomerization of NLRP1 induced by MDP/ATP (NLRP1 [4]) | Km (NLRP1 [1]) [µM] | reduction of affinity (Km) of Caspase-1 for Ac-WEHD-AMC compared to control (NLRP1 [1]) [fold] | Ki (NLRP1 [1]) | mechanism of NLRP1 inhibition (Lineweaver-Burke analysis) (NLRP1 [1]) | IC50 (NLRP1 [1])
1 | acetyl-Tryptophanyl-Glutamyl-Histidinyl-Aspartyl-aldehyde (Ac-WEHD-aldehyde; SMILES CC(=O)N[C@@H](Cc1c[nH]c2ccccc12)C(=O)N[C@@H](CCC(=O)O)C(=O)N[C@@H](Cc1c[nH]cn1)C(=O)N[C@H](C=O)CC(=O)O) [Ac-WEHD-CHO, reference compound] | completely inhibited; also recorded: potently suppressed the activity of this protease | completely neutralized Caspase-1 activity | – | – | – | – | – | – | – | – | –
2 | YDNREIVMKYIHYKLSQRGYEW (Synthetic Bcl-2 Loop peptides) [Bcl-2 BH4 domain 9-30, control peptide, reference compound] | – | – | negligible activity | – | – | – | – | – | – | – | –
3 | Bcl-XL: anti-apoptotic protein; recombinant GST-fusion lacking C-terminal transmembrane domain | neither Bcl-2 nor Bcl-XL suppressed Caspase-1 activity | – | essentially complete inhibition | ~60% | inhibited | suppressed oligomerization of NLRP1 | 6.05 ± 0.24 | 2 | ~10 nM and 10 nM | competitive inhibitors of NLRP1 | –
4 | PLQTPAAPGAAAGPALSPVP [Bcl-2 71-90] | – | neither the 35-83 nor the 71-90 loop peptides suppressed Caspase-1 activation by NLRP1ΔLRR | reducing Caspaes-1 activity to background levels | – | – | – | – | – | – | – | 9.92 nM and ~10 nM
5 | Bcl-2: anti-apoptotic protein; recombinant GST-fusion lacking C-terminal transmembrane domain (SEQ ID NO:3/4) | neither Bcl-2 nor Bcl-XL suppressed Caspase-1 activity | – | essentially complete inhibition | ~60% | inhibited | – | 5.04 ± 0.5 | 2 | ~10 nM and 8.23 nM and 10 nM | competitive inhibitors of NLRP1 | –
6 | VGAAPPGAAPAPGIFSSQPGHTPHPAASRDPVARTSPLQTPAAPGAAAG [Bcl-2 Loop 35-83] | did not directly inhibit Caspase-1 | neither the 35-83 nor the 71-90 loop peptides suppressed Caspase-1 activation by NLRP1ΔLRR | reducing Caspaes-1 activity to background levels | – | – | – | – | – | – | – | 11.4 nM and ~12 nM
7 | GST: control protein [reference compound] | – | – | – | negligible effects | – | not affected | – | – | – | – | –
